In US20230250186A1 (published 2023):

T1: rat CD38 extracellular protein (rat, UniProt Q64244 45-303)
T1 construct: extracellular domain; Purchased; also called CD38 protein molecules of rats
T1 sequence (looked up): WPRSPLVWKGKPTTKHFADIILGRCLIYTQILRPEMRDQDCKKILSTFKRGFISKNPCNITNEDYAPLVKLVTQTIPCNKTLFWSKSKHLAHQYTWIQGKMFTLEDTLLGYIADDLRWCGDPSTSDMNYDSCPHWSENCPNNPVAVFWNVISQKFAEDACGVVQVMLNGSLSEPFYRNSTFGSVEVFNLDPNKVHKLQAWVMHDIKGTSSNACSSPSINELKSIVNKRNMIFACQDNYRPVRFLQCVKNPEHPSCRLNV

T2: mouse CD38 extracellular protein (mouse, UniProt P56528 45-304)
T2 construct: extracellular domain; Purchased; also called CD38 protein molecules of mice
T2 sequence (looked up): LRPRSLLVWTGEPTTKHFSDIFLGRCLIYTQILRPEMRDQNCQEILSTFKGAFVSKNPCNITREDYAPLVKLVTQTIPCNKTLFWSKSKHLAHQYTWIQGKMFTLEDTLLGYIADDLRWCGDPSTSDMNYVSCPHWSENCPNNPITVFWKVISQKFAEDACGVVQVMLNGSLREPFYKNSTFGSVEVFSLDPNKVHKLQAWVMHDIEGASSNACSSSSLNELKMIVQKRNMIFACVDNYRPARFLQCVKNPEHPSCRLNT


Assays:
[1] = target: T3, CD38 protein on the surface of Raji, Daudi, Ramos and RPMI8226 cells (human, UniProt P28907 1-300); assay: flow cytometry on Ramos cells
T3 construct: whole, on cells; also called CD38 on the surfaces of Raji cells, Daudi cells, Ramos cells and RPMI8226 cells; cell surface antigen
Description: (§1) The logarithmic growth phase cells were collected, adjusted to a cell density of 5×10⁶ cells/mL, and pre-cooled on ice. […] 100 μL of cells were taken, and an equal volume of the diluted antibody was added for reaction at 4° C. for 30 min in the dark. After the completion of reaction, the cells were washed twice. The cells were resuspended in 100 μL of the diluted PE Mouse Anti-Human IgG secondary antibodies (purchased from BD Pharmingen), and reacted at 4° C. in the dark for 30 min. After the completion of reaction, the cells were washed twice with a pre-cooled normal saline containing 2% FBS. The cells were resuspended in 400 μL of 1% paraformaldehyde. Flow cytometry (BD Calibur) was used to analyze the binding ability of antibodies to cell surface antigens.

[2] = target: T4, antigen CD38 (UniProt P28907 43-300, limits assumed); assay: BIACORE SPR, antibody captured by anti-human IgG-Fab, CD38 as mobile phase
T4 construct: Soluble antigen; also called CD38 antigen
Description: (§2) The antibody affinity was analyzed by BIACORE Biomacromolecule Interaction Apparatus (GE).

[3] = target: T3, CD38 protein on the surface of Raji, …; assay: cell-based or functional assay
[4] = target: T3, CD38 protein on the surface of Raji, …; assay: flow cytometry on Daudi cells
Description: as §1

[5] = target: BSA (BOVOGEN) (UniProt P02769 25-607); assay: ELISA on coated protein, anti-human IgG HRP
Description: Various proteins, such as milk (Beijing Bomed Biotechnology Co., Ltd.), BSA (BOVOGEN), CD19 (Beijing Yiqiao Shenzhou Biotechnology Co., Ltd.), TROP2 (Beijing Yiqiao Shenzhou Biotechnology Co., Ltd.), CD47 (Beijing Magpel Biotech Technology Co., Ltd.), CD38 (Beijing Yiqiao Shenzhou Biotechnology Co., Ltd.), Gas6 (R&D) and AXL (ACRO Biosystems) were respectively used to coat ELISA strips at 1 mg/ml at 4° C. overnight. After washing with PBST, 10% fetal bovine serum was added and blocked at 37° C. for 1 hour. […] After washing with PBST, horseradish peroxidase-labeled goat anti-human IgG HRP secondary antibodies (purchased from ThermoFisher Scientific) was added and reacted at room temperature for 30 minutes. After washing the plate with PBST (5 times), the residual drops were removed as possible on the absorbent paper. 100 ml TMB (eBioscience) was added to each well and placed at room temperature (20±50) in the dark for 1-5 min. 100 ml of 2N H₂SO₄ stop solution was added to each well to quench the substrate reaction, and the OD value was read at 450 nm with a microplate reader to analyze the antibody-protein binding ability.

[6] = target: T5, CD38-His fusion protein (UniProt P28907 43-300, limits assumed); assay: ELISA on coated CD38-His, anti-human IgG HRP
T5 construct: also called target antigen CD38-His; not shown: His tag

[7] = target: T3, CD38 protein on the surface of Raji, …; assay: flow cytometry on Raji cells
Description: as §1

[8] = target: T1, rat CD38 extracellular protein; assay: ELISA on coated CD38 extracellular protein
Description: (§3) The CD38 extracellular proteins (Beijing Yiqiao Shenzhou Biotechnology Co., Ltd.) of different species of human (Human), mouse (Mouse), rat (Rat), cynomolgus monkey (Cynomolgus) and the like were respectively used to coat ELISA strips at 1 mg/ml at 40 overnight. After washing with PBST, 10% fetal bovine serum was added and blocked at 370 for 1 hour. […] After washing with PBST, horseradish peroxidase-labeled goat anti-human IgG HRP secondary antibodies (purchased from Thermo Fisher Scientific) was added and reacted at room temperature for 30 minutes. The plate was washed with PBST (5 times), and the remaining drops were removed as possible on the absorbent paper. 100 ml of TMB (purchased from eBioscience) was added to each well, and placed at room temperature (20±5° C.) in the dark for 1-5 min. 100 ml of 2N H₂SO₄ stop solution was added to each well to quench the substrate reaction, and the OD value was read at 450 nm with a microplate, to analyze the binding ability of the antibody to CD38 protein of different species.

[9] = target: T2, mouse CD38 extracellular protein; assay: ELISA on coated CD38 extracellular protein
Description: as §3

[10] = target: T6, cynomolgus monkey CD38 extracellular protein (cynomolgus monkey, UniProt Q5VAN0 44-301); assay: ELISA on coated CD38 extracellular protein
T6 construct: extracellular domain; Purchased; also called CD38 protein molecules of cynomolgus monkeys; Cynomolgus CD38
Description: as §3

[11] = target: T4, antigen CD38; assay: binding curve of FIG. 9; method not clearly stated
[12] = target: T4, antigen CD38; assay: BIACORE SPR by the method of Example 4
Description: as §2

[13] = target: T3, CD38 protein on the surface of Raji, …; assay: flow cytometry on RPMI8226 cells
Description: as §1

Chain of BSA (BOVOGEN) (P02769 25-607 limits assumed): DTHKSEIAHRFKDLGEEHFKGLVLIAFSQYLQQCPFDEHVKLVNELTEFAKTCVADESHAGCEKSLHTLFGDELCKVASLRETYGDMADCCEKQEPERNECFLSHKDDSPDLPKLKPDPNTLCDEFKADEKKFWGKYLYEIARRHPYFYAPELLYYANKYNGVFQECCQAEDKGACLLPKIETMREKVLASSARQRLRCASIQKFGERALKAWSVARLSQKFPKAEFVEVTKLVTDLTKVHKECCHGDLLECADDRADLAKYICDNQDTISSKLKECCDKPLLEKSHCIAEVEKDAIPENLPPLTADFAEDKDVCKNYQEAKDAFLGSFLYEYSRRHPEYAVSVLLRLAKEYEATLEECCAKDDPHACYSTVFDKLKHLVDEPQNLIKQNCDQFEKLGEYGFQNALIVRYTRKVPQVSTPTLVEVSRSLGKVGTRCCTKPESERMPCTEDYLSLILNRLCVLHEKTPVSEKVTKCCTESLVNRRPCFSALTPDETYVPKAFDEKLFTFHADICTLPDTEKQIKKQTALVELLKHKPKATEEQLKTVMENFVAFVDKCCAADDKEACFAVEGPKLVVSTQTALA
T6 sequence (Q5VAN0 44-301): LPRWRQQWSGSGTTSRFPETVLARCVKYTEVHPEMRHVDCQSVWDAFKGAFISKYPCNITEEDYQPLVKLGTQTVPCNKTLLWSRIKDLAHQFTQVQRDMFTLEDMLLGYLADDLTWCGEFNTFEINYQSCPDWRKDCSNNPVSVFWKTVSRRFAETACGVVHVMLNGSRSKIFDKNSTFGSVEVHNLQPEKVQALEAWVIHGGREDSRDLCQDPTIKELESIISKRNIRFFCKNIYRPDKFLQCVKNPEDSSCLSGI

Row | EC50 [1] | ADCC EC50, Daudi target cells with NK92MI-CD16a effector cells (LDH release) [3] | ADCC EC50, RPMI8226 target cells with NK92MI-CD16a effector cells (LDH release) [3] | ADCC EC50, Raji target cells with NK92MI-CD16a effector cells (LDH release) [3] | ADCC EC50, Ramos target cells with NK92MI-CD16a effector cells (LDH release) [3] | EC50 [4] | EC50 [6] | EC50 [7] | EC50 [11] | Binder | further results
1 | 0.0815 µg/mL | 0.00072 µg/mL | 0.00146 µg/mL | 0.00697 µg/mL | 0.00069 µg/mL | 0.0367 µg/mL | 0.0351 µg/mL | 0.0344 µg/mL |  | humanized antibody SG003 (antibody, V domains shown, Full antibody expressed in CHO-S cells from vector pCMV-163 with a human IgG constant region; also called SG003 antibody) VH: QVQLLESGGGLVQPGGSLKLSCVASGFDFSLYWMNWVRQAPGKGLEWIGKINPDSSTINYTPSLKDKFFISRDNAKNTLYLQMTKVRSEDTALYYCARLWIATGGFDYWGQGTTLTVSS VL: EIVMTQSPASLSASLGQRATISCRASSSVSSSAFSYVHWYQQKSGQPPKLLIYLASNLESGVPARFSGSGSGTDFTLTIHPVESEDVATYYCHHSRELPFTFGSGTKLEIKR | Kd [2]: 321 pM; binding result [5]: no binding; binding result [8]: no binding; binding result [9]: no binding; binding result [10]: binds
2 |  |  |  |  |  |  |  |  | 0.0157 µg/mL | SG003M1 antibody (antibody, human IgG1, kappa, V domains shown, also called randomly mutated antibody SG003M1-3) VH: QVQLLESGGGLVQPGGSLKLSCVASGYNFSLYYMNWVRQAPGKGLEWIGKIQPESSTIQYTPSLKDKFFISRDNAKNTLYLQMTKVRSEDTALYYCARLWIGSGGFDYWGQGTTLTVSS VL: EIVMTQSPASLSASLGQRASISCRASNSVSSSAYSYVHWYQQKSGQPPKLLIYLASNIQSGVPARFSGSGSGTDFTLTIHPVESEDVATYYCHHSRQLPSTFGSGTKLEIKR | Kd [12]: 239 pM; koff [12]: 0.000636 s⁻¹; kon [12]: 2.66e+06 M⁻¹ s⁻¹
3 |  |  |  |  |  |  |  |  | 0.0061 µg/mL | SG003M3 antibody (antibody, human IgG1, kappa, V domains shown, also called randomly mutated antibody SG003M1-3) VH: QVQLLESGGGLVQPGGSLKLSCVASGFDFSLYWMNWVRQAPGKGLEWIGKISPDSSSLNYTPSVKDKFFISRDNAKNTLYLQMTKVRSEDTALYYCARLWIATGGYNYWGQGTTLTVSS VL: EIVMTQSPASLSASLGQRATISCRASNSVSTSAFSYVHWYQQKSGQPPKLLIYLASNLESGVPARFSGSGSGTDFTLTIHPVESEDVATYYCHHSREVPFTFGSGTKLEIKR | 
4 |  |  |  |  |  |  |  |  | 0.0278 µg/mL | SG003M2 antibody (antibody, human IgG1, kappa, V domains shown, also called randomly mutated antibody SG003M1-3) VH: QVQLLESGGGLVQPGGSLKLSCVASGFDFSLYWMNWVRQAPGKGLEWIGKISPNSSTINYSPSLKDKFFISRDNAKNTLYLQMTKVRSEDTALYYCARLYIASGGFDYWGQGTTLTVSS VL: EIVMTQSPASLSASLGQRATISCRASSSVSSSAYSYVHWYQQKSGQPPKLLIYLASDLQSGVPARFSGSGSGTDFTLTIHPVESEDVATYYCHHSRELPYSFGSGTKLEIKR | 
5 | 0.0951 µg/mL | 0.0046 µg/mL | 0.00494 µg/mL | 0.017 µg/mL | 0.00301 µg/mL | 0.0509 µg/mL | 0.151 µg/mL | 0.0493 µg/mL |  | Daratumumab (DARZALEX) (antibody, V domains shown) VH: EVQLLESGGGLVQPGGSLRLSCAVSGFTFNSFAMSWVRQAPGKGLEWVSAISGSGGGTYYADSVKGRFTISRDNSKNTLYLQMNSLRAEDTAVYFCAKDKILWFGEPVFDYWGQGTLVTVSS VL: not shown | EC50 [13]: 0.176 µg/mL
